The subject of the data set is Escherichia coli TOP10. In words: shrunken log2 fold change of peptide-encoding DNA abundance (4.5 h post-induction vs induction); higher = less antimicrobial activity (less host growth inhibition). Particulars: time post-induction: 4.5 h; library: site-saturation at positions 5, 18, 19, 20.
With RRIRERPPRLPRPRPRPKFFPRP, the “shrunken log2 fold change” value is -0.0207.
In the case of RRIRARPPRLPRPRPRPCAYPRP, the “shrunken log2 fold change” value was -0.399.
For RRIRVRPPRLPRPRPRPIQQPRP the value was 0.00847; for RRIRHRPPRLPRPRPRPQDNPRP, -0.144.
For RRIRQRPPRLPRPRPRPLYVPRP the value was -0.307; for RRIRHRPPRLPRPRPRPCDDPRP, -0.0661.
For RRIRQRPPRLPRPRPRPWHEPRP the value was -0.00567; for RRIRMRPPRLPRPRPRPTQYPRP, 0.248.
Consider RRIRKRPPRLPRPRPRPDTQPRP, for which the “shrunken log2 fold change” value stood at 0.202.
For RRIRRRPPRLPRPRPRPIIKPRP the value was -0.265; for RRIRERPPRLPRPRPRPCLCPRP, -0.134.
As for RRIRQRPPRLPRPRPRPGYTPRP, the “shrunken log2 fold change” value was -0.912.
For the sequence RRIRRRPPRLPRPRPRPLHAPRP, the “shrunken log2 fold change” value stood at 1.06.
Regarding RRIRNRPPRLPRPRPRPDRSPRP, the “shrunken log2 fold change” value was -0.043.
Turning to RRIRMRPPRLPRPRPRPMYQPRP, the “shrunken log2 fold change” value was -0.0563.
For RRIRTRPPRLPRPRPRPLKNPRP the value was -0.397.
For RRIRSRPPRLPRPRPRPSHCPRP the value was 0.079; for RRIRHRPPRLPRPRPRPSTCPRP, -0.0299; for RRIRVRPPRLPRPRPRPQFRPRP, -1.21.
For RRIRQRPPRLPRPRPRPKNMPRP the value was -0.646; for RRIRERPPRLPRPRPRPQPVPRP, -0.13.
Turning to RRIRKRPPRLPRPRPRPYVSPRP, the “shrunken log2 fold change” value was -0.438.
For RRIRYRPPRLPRPRPRPRNFPRP the value was -0.358; for RRIRSRPPRLPRPRPRPNSCPRP, -0.121.
For RRIRWRPPRLPRPRPRPGCMPRP the value was 0.464; for RRIRDRPPRLPRPRPRPRLIPRP, -0.189.
For RRIRSRPPRLPRPRPRPIIEPRP the value was -0.114.
For RRIRKRPPRLPRPRPRPGPIPRP, the “shrunken log2 fold change” value stood at 0.204.
For RRIRMRPPRLPRPRPRPTVTPRP the value was 0.307.
For RRIRQRPPRLPRPRPRPSFMPRP the value was -0.509.
Consider RRIRFRPPRLPRPRPRPGRTPRP, for which the “shrunken log2 fold change” value came out at 0.301.
In the case of RRIRRRPPRLPRPRPRPLAFPRP, the “shrunken log2 fold change” value came to 0.448.
RRIRRRPPRLPRPRPRPFRGPRP: the “shrunken log2 fold change” value was -0.105.
For RRIRFRPPRLPRPRPRPFVRPRP the value was -0.0733; for RRIRARPPRLPRPRPRPYFRPRP, -0.435.
For RRIRDRPPRLPRPRPRPIDQPRP the value was -0.0222; for RRIRWRPPRLPRPRPRPGWLPRP, 0.375; for RRIRTRPPRLPRPRPRPLTWPRP, -0.174.
For RRIRRRPPRLPRPRPRPYNLPRP the value was -0.233.
As for RRIRHRPPRLPRPRPRPGDDPRP, the “shrunken log2 fold change” value is -0.044.
For RRIRVRPPRLPRPRPRPMSIPRP the value was -0.306; for RRIRARPPRLPRPRPRPRELPRP, 0.496; for RRIRYRPPRLPRPRPRPGNNPRP, -0.359.
Consider RRIRRRPPRLPRPRPRPFDMPRP, for which the “shrunken log2 fold change” value is -0.0228.
For RRIRCRPPRLPRPRPRPDKCPRP the value was -0.325.
For RRIRTRPPRLPRPRPRPCCLPRP the value was 0.096.
Regarding RRIRFRPPRLPRPRPRPTEDPRP, the “shrunken log2 fold change” value was 0.0193.
Turning to RRIRFRPPRLPRPRPRPMGKPRP, the “shrunken log2 fold change” value was -0.307.
For RRIRMRPPRLPRPRPRPVTTPRP the value was 0.107.
For RRIRGRPPRLPRPRPRPIMIPRP the value was 0.0216; for RRIRFRPPRLPRPRPRPGDLPRP, -0.23.
Regarding RRIRERPPRLPRPRPRPEHHPRP, the “shrunken log2 fold change” value was -0.543.
For RRIRDRPPRLPRPRPRPCVLPRP the value was 0.0171; for RRIRRRPPRLPRPRPRPTFEPRP, 0.358; for RRIRARPPRLPRPRPRPNHLPRP, -0.000432.
For RRIRFRPPRLPRPRPRPQYSPRP the value was -0.581; for RRIRYRPPRLPRPRPRPVYYPRP, -0.68; for RRIRRRPPRLPRPRPRPPGEPRP, 0.705.
As for RRIRERPPRLPRPRPRPEKAPRP, the “shrunken log2 fold change” value was -0.0229.
For RRIRMRPPRLPRPRPRPTHLPRP the value was 0.396; for RRIRQRPPRLPRPRPRPPKCPRP, -0.37; for RRIRARPPRLPRPRPRPPDPPRP, 1.
RRIRGRPPRLPRPRPRPFSYPRP: the “shrunken log2 fold change” value was determined as 0.0924.
For RRIRCRPPRLPRPRPRPRHLPRP the value was -0.302; for RRIRKRPPRLPRPRPRPCVCPRP, 0.0462.
For RRIRARPPRLPRPRPRPAMDPRP the value was 0.568; for RRIRLRPPRLPRPRPRPKDNPRP, -0.303; for RRIRYRPPRLPRPRPRPKLCPRP, -0.0301.
For RRIRKRPPRLPRPRPRPWFHPRP the value was -0.838; for RRIRTRPPRLPRPRPRPFVSPRP, 0.00713.
As to RRIRMRPPRLPRPRPRPDAIPRP, the “shrunken log2 fold change” value was 0.164.
Take RRIRCRPPRLPRPRPRPVIGPRP: the “shrunken log2 fold change” value is -0.18.
For RRIRLRPPRLPRPRPRPYFDPRP the value was -0.255; for RRIRTRPPRLPRPRPRPGQAPRP, -0.228; for RRIRRRPPRLPRPRPRPGVGPRP, 0.59.
For RRIRERPPRLPRPRPRPQHPPRP the value was -0.367; for RRIRGRPPRLPRPRPRPISHPRP, -0.0449.
For RRIRLRPPRLPRPRPRPMTKPRP the value was 0.0751; for RRIRPRPPRLPRPRPRPQVLPRP, -0.208; for RRIRSRPPRLPRPRPRPTQPPRP, 0.215.
Turning to RRIRVRPPRLPRPRPRPDLNPRP, the “shrunken log2 fold change” value was -0.233.
For RRIRGRPPRLPRPRPRPIWAPRP the value was 0.267.
For RRIRGRPPRLPRPRPRPPLGPRP the value was 0.844.
With RRIRFRPPRLPRPRPRPQSMPRP, the “shrunken log2 fold change” value is -0.434.
For RRIRDRPPRLPRPRPRPTPAPRP the value was 0.551; for RRIRYRPPRLPRPRPRPTVIPRP, -0.146; for RRIRKRPPRLPRPRPRPGGMPRP, 0.633.
For RRIRTRPPRLPRPRPRPGFYPRP the value was -0.159.
Regarding RRIRTRPPRLPRPRPRPGVTPRP, the “shrunken log2 fold change” value worked out at 0.276.
For RRIRWRPPRLPRPRPRPMHEPRP the value was -0.0461.
As for RRIRWRPPRLPRPRPRPILQPRP, the “shrunken log2 fold change” value worked out at 0.0247.
For RRIRERPPRLPRPRPRPVDTPRP the value was 0.000639; for RRIRIRPPRLPRPRPRPTFWPRP, 0.407.
For RRIRVRPPRLPRPRPRPEQCPRP the value was 0.171; for RRIRCRPPRLPRPRPRPDLAPRP, 0.102.
For RRIRRRPPRLPRPRPRPNLLPRP the value was -0.00833; for RRIRTRPPRLPRPRPRPFEAPRP, 0.0368.
RRIRGRPPRLPRPRPRPAAPPRP: the “shrunken log2 fold change” value came out at 1.38.
Turning to RRIRARPPRLPRPRPRPGMTPRP, the “shrunken log2 fold change” value came out at 0.261.
For RRIRHRPPRLPRPRPRPFFHPRP the value was -0.454; for RRIRDRPPRLPRPRPRPQRMPRP, -0.0312; for RRIRDRPPRLPRPRPRPINDPRP, 0.0753.
On to RRIRVRPPRLPRPRPRPEINPRP, for which the “shrunken log2 fold change” value was -0.00259.
For RRIRTRPPRLPRPRPRPMMTPRP the value was 0.0356.
For RRIRCRPPRLPRPRPRPRCTPRP the value was -0.00347; for RRIRWRPPRLPRPRPRPAFRPRP, -0.015; for RRIRDRPPRLPRPRPRPRWYPRP, -0.0526.
On to RRIRFRPPRLPRPRPRPGLWPRP, for which the “shrunken log2 fold change” value is 0.526.
For RRIRFRPPRLPRPRPRPCLFPRP the value was -0.264.
For the sequence RRIRWRPPRLPRPRPRPNVMPRP, the “shrunken log2 fold change” value is -0.00962.
For RRIRIRPPRLPRPRPRPKKCPRP the value was -0.0871; for RRIRFRPPRLPRPRPRPYMAPRP, -0.688; for RRIRARPPRLPRPRPRPDTLPRP, -0.0794.
For RRIRLRPPRLPRPRPRPEEDPRP the value was -0.00133.
For RRIRGRPPRLPRPRPRPVIAPRP the value was 0.506.
Turning to RRIRKRPPRLPRPRPRPTHVPRP, the “shrunken log2 fold change” value is -0.305.
For RRIRPRPPRLPRPRPRPTVSPRP the value was 0.433; for RRIRMRPPRLPRPRPRPTKNPRP, 1.35; for RRIRFRPPRLPRPRPRPFRQPRP, -0.00049.
For RRIRNRPPRLPRPRPRPDYRPRP the value was -0.668; for RRIRSRPPRLPRPRPRPMYLPRP, -0.0356.
For RRIRNRPPRLPRPRPRPHGVPRP the value was 0.0154; for RRIRMRPPRLPRPRPRPQPYPRP, -0.00544.
With RRIRCRPPRLPRPRPRPVVLPRP, the “shrunken log2 fold change” value was -0.0778.
For RRIRIRPPRLPRPRPRPKMIPRP, the “shrunken log2 fold change” value is -0.379.
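Note: peptides expressed intracellularly from a pBAD plasmid library in pooled LB shake-flask culture, induced with 0.3% L-arabinose, DNA abundance read by NGS, three biological replicates, DESeq2 with apeglm shrinkage.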
